Laboratory results taken from patent US20250320284A1 (AC IMMUNE, published 2025).
Substitutions are numbered along the chain they refer to.

Molecular target: T1, human ASC (apoptosis associated speck-like protein containing a caspase-recruitment domain) (human, UniProt Q9ULZ3 1-195)
T1 construct: recombinant hASC in ELISA and SPR; endogenous ASC (cytoplasmic or specks) in Western blot and immunofluorescence; also called hASC; PYCARD
Assay: SPR, hASC immobilized, Fab in flow;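 further: hASC amine-coupled on a CM5 chip (about 500 RU), Fab analytes measured by single-cycle kinetics in PBS-P+ running buffer, glycine pH 1.7 regeneration between Fabs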
Method: The instrument was primed with running buffer (10×PBS-P+ diluted to 1× in Milli-Q water). Flow-cells 1-2 of all 8 Fc,s on a CM5 Series S sensor chip were activated with a fresh solution of EDC/NHS at 10 μL/min for 420 sec (Amine Coupling Kit, 1:1 ratio both reagents). hASC was diluted in 10 mM sodium acetate pH 4.0 to a final concentration of 50 μg/mL and injected for 600 sec on Fc2 of all 8 Fc to a final level of 500 RU. Next, all unreacted activated ester groups were quenched with 1 M ethanolamine for 420 sec. Two successive regenerations of 10 mM glycine-HCl pH 1.7 for 30 sec were conducted to remove any non-covalently bound ASC.
Single-cycle kinetics were performed with a surface regeneration between each cycle. Prior to analysis, two Startup Cycles were run. […] Each successive Fab was preceded by a regeneration step using 10 mM glycine-HCl pH 1.7 with a contact time of 30 sec at 10 μL/min, followed by a stabilization period of 300 sec.

T1 sequence (Q9ULZ3 whole entry, the tested form may be a part): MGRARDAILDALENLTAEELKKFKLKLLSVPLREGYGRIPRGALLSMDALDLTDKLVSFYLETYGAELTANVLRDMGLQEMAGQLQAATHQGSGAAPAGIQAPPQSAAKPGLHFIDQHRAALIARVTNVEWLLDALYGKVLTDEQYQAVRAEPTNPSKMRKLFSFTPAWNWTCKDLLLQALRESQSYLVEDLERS

B1: ACI-8016-32B6C7-AB1 chimeric Fab (Fab, V domains shown)
VH: QVQLQQSDAELVKPGASVKISCKISGYTFTDQTIHWMNQRPEQGLEWIGYIYPGDGSAMYNEKFRGKATLTADKSSSTAYMQLNSLTSEDSAVYFCARPLYSYASYYWFAYWGQGTLVTVSA
VL: DIQMNQSPSSLSASLGDTITITCHASQNINVWLSWYQRKPGNIPKLLIYKSSNLHTGVPSRFSGSGSGTGFTLTISSLQPEDIATYYCQQGQSYPLTFGGGTKLEIK
notes: Fab
B1 showed a Kd of 1.01 nM, a koff of 2.11e-05 s⁻¹ and a kon of 20900 M⁻¹ s⁻¹.

B2: hACI-8016-32B6C7-AB1_H9L3 Fab (Fab, V domains shown)
VH: EVQLVQSGAEVKKPGESLKISCKISGYSFTDQTIHWVHQMPGKGLEWMGYIYPGDGSAMYNEKFQGQVTISADKSISTAYLQWSSLKASDTAMYYCARPLYSYASYYWFAYWGQGTLVTVSS
VL: EIVLTQSPATLSLSPGERATLSCHASQNINVWLSWYQQKPGQAPRLLIYKSSNLHTGIPARFSGSGSGTDFTLTISSLEPEDFAVYYCQQGQSYPLTFGQGTKLEIK
Binder B2 has a Kd of 0.091 nM, a koff of 8.87e-06 s⁻¹ and a kon of 99100 M⁻¹ s⁻¹.

B3: hACI-8016-32B6C7-AB1_H2L3 Fab (Fab, V domains shown)
VH: B2 VH with S28T
VL: B2 VL
Work on B3 yielded a Kd of 0.105 nM, a koff of 8.64e-06 s⁻¹ and a kon of 82200 M⁻¹ s⁻¹.

B4: hACI-8016-32B6C7-AB1_H9L4 Fab (Fab, V domains shown)
VH: B2 VH
VL: B2 VL with W32Y
For B4, the Kd was 0.081 nM, the koff was 7.52e-06 s⁻¹ and the kon was 92000 M⁻¹ s⁻¹.

B5: hACI-8016-32B6C7-AB1_H13L3 Fab (Fab, V domains shown)
VH: B2 VH with G56S
VL: B2 VL
B5 showed a Kd of 0.077 nM, a koff of 8.01e-06 s⁻¹ and a kon of 105000 M⁻¹ s⁻¹.

B6: hACI-8016-32B6C7-AB1_H13L4 Fab (Fab, V domains shown)
VH: B2 VH with G56S
VL: B2 VL with W32Y
B6 gave a Kd of 0.084 nM, a koff of 7.09e-06 s⁻¹ and a kon of 84100 M⁻¹ s⁻¹.

B7: hACI-8016-32B6C7-AB1_H5L4 Fab (Fab, V domains shown)
VH: QVQLVQSGAEVKKPGSSVKVSCKISGYTFTDQTIHWVRQAPGQGLEWMGYIYPGDGSAMYNEKFQGRVTITADKSTSTAYMELSSLRSEDTAVYYCARPLYSYASYYWFAYWGQGTLVTVSS
VL: B2 VL with W32Y
B7 was tested, and the Kd was 0.079 nM, the koff was 6.68e-06 s⁻¹ and the kon was 84500 M⁻¹ s⁻¹.

B8: hACI-8016-32B6C7-AB1_H4L3 Fab (Fab, V domains shown)
VH: B7 VH with T28S
VL: B2 VL
Work on B8 yielded a Kd of 0.077 nM, a koff of 8.16e-06 s⁻¹ and a kon of 108000 M⁻¹ s⁻¹.

B9: hACI-8016-32B6C7-AB1_H6L3 Fab (Fab, V domains shown)
VH: B7 VH with I24A
VL: B2 VL
B9 showed a Kd of 0.086 nM, a koff of 7.52e-06 s⁻¹ and a kon of 87200 M⁻¹ s⁻¹.

B10: hACI-8016-32B6C7-AB1_H6L4 Fab (Fab, V domains shown)
VH: B7 VH with I24A
VL: B2 VL with W32Y
Work on B10 yielded a Kd of 0.067 nM, a koff of 5.28e-06 s⁻¹ and a kon of 79200 M⁻¹ s⁻¹.

B11: hACI-8016-32B6C7-AB1_H7L4 Fab (Fab, V domains shown)
VH: B7 VH with G56S
VL: B2 VL with W32Y
B11 was tested, and the Kd was 0.067 nM, the koff was 5.62e-06 s⁻¹ and the kon was 84300 M⁻¹ s⁻¹.

B12: hACI-8016-32B6C7-AB1_H8L4 Fab (Fab, V domains shown)
VH: B7 VH with G56A
VL: B2 VL with W32Y
Binder B12 has a Kd of 0.077 nM, a koff of 7.03e-06 s⁻¹ and a kon of 94000 M⁻¹ s⁻¹.

B13: hACI-8016-32B6C7-AB1_H14L3 Fab (Fab, V domains shown)
VH: B7 VH with I24A, G56S
VL: B2 VL
B13 showed a Kd of 0.049 nM, a koff of 4.96e-06 s⁻¹ and a kon of 101000 M⁻¹ s⁻¹.
